Test results: PMC8406312, “Reovirus Nonstructural Protein σNS Recruits Viral RNA to Replication Organelles” (mBio, 2021)

B1: reovirus nonstructural protein σNS, wild type, in vitro expressed (natural protein)
chain: MASSLRAAISKIKRDDVGQQVCPNYVMLRSSVTTKVVRNVVEYQIRTGGFFSCLAMLRPLQYAKRERLLGQRNLERISTRDILQTRDLHSLCMPTPDAPMSNHQASTMRELICSYFKVDHADGLKYIPMDERYSPSSLARLFTMGMAGLHITTEPSYKRVPIMHLAADLDCMTLALPYMITLDGDTVVPVAPTLSAEQLLDDGLKGLACMDISYGCEVDANSRPAGDQSMDSSRCINELYCEETAEAICVLKTCLVLNCMQFKLEMDDLAHNAAELDKIQMMIPFSERVFRMASSFATIDAQCFRFCVMMKDKNLKIDMRETTRLWTRSASDDSVATSSLSISLDRGRWVAADASDARLLVFPIRV
modifications: [35S]methionine-labelled
notes: nonstructural protein σNS of mammalian orthoreovirus (reovirus) strain T3D, S3 gene; same plasmid as m1, expressed in reticulocyte lysate; also called WT σNS; source: in vitro translated (TNT T7 polymerase-coupled rabbit reticulocyte lysate), not purified
B2: σNS R6A, in vitro expressed (natural protein)
chain: MASSLAAAISKIKRDDVGQQVCPNYVMLRSSVTTKVVRNVVEYQIRTGGFFSCLAMLRPLQYAKRERLLGQRNLERISTRDILQTRDLHSLCMPTPDAPMSNHQASTMRELICSYFKVDHADGLKYIPMDERYSPSSLARLFTMGMAGLHITTEPSYKRVPIMHLAADLDCMTLALPYMITLDGDTVVPVAPTLSAEQLLDDGLKGLACMDISYGCEVDANSRPAGDQSMDSSRCINELYCEETAEAICVLKTCLVLNCMQFKLEMDDLAHNAAELDKIQMMIPFSERVFRMASSFATIDAQCFRFCVMMKDKNLKIDMRETTRLWTRSASDDSVATSSLSISLDRGRWVAADASDARLLVFPIRV
modifications: [35S]methionine-labelled
notes: nonstructural protein σNS of mammalian orthoreovirus (reovirus) strain T3D, S3 gene; same plasmid as m2; also called R6A σNS; source: in vitro translated (TNT T7 polymerase-coupled rabbit reticulocyte lysate), not purified
B3: σNS K35A, in vitro expressed (natural protein)
chain: MASSLRAAISKIKRDDVGQQVCPNYVMLRSSVTTAVVRNVVEYQIRTGGFFSCLAMLRPLQYAKRERLLGQRNLERISTRDILQTRDLHSLCMPTPDAPMSNHQASTMRELICSYFKVDHADGLKYIPMDERYSPSSLARLFTMGMAGLHITTEPSYKRVPIMHLAADLDCMTLALPYMITLDGDTVVPVAPTLSAEQLLDDGLKGLACMDISYGCEVDANSRPAGDQSMDSSRCINELYCEETAEAICVLKTCLVLNCMQFKLEMDDLAHNAAELDKIQMMIPFSERVFRMASSFATIDAQCFRFCVMMKDKNLKIDMRETTRLWTRSASDDSVATSSLSISLDRGRWVAADASDARLLVFPIRV
modifications: [35S]methionine-labelled
notes: nonstructural protein σNS of mammalian orthoreovirus (reovirus) strain T3D, S3 gene; same plasmid as m8; also called K35A σNS; source: in vitro translated (TNT T7 polymerase-coupled rabbit reticulocyte lysate), not purified
B4: σNS TriA (K11A, K13A, and R14A), in vitro expressed (natural protein)
chain: MASSLRAAISAIAADDVGQQVCPNYVMLRSSVTTKVVRNVVEYQIRTGGFFSCLAMLRPLQYAKRERLLGQRNLERISTRDILQTRDLHSLCMPTPDAPMSNHQASTMRELICSYFKVDHADGLKYIPMDERYSPSSLARLFTMGMAGLHITTEPSYKRVPIMHLAADLDCMTLALPYMITLDGDTVVPVAPTLSAEQLLDDGLKGLACMDISYGCEVDANSRPAGDQSMDSSRCINELYCEETAEAICVLKTCLVLNCMQFKLEMDDLAHNAAELDKIQMMIPFSERVFRMASSFATIDAQCFRFCVMMKDKNLKIDMRETTRLWTRSASDDSVATSSLSISLDRGRWVAADASDARLLVFPIRV
modifications: [35S]methionine-labelled
notes: nonstructural protein σNS of mammalian orthoreovirus (reovirus) strain T3D, S3 gene; same plasmid as m5; also called TriA σNS; source: in vitro translated (TNT T7 polymerase-coupled rabbit reticulocyte lysate), not purified
B5: σNS Y25A, in vitro expressed (natural protein)
chain: MASSLRAAISKIKRDDVGQQVCPNAVMLRSSVTTKVVRNVVEYQIRTGGFFSCLAMLRPLQYAKRERLLGQRNLERISTRDILQTRDLHSLCMPTPDAPMSNHQASTMRELICSYFKVDHADGLKYIPMDERYSPSSLARLFTMGMAGLHITTEPSYKRVPIMHLAADLDCMTLALPYMITLDGDTVVPVAPTLSAEQLLDDGLKGLACMDISYGCEVDANSRPAGDQSMDSSRCINELYCEETAEAICVLKTCLVLNCMQFKLEMDDLAHNAAELDKIQMMIPFSERVFRMASSFATIDAQCFRFCVMMKDKNLKIDMRETTRLWTRSASDDSVATSSLSISLDRGRWVAADASDARLLVFPIRV
modifications: [35S]methionine-labelled
notes: nonstructural protein σNS of mammalian orthoreovirus (reovirus) strain T3D, S3 gene; same plasmid as m6; also called Y25A σNS; source: in vitro translated (TNT T7 polymerase-coupled rabbit reticulocyte lysate), not purified
B6: σNS K11A, in vitro expressed (natural protein)
chain: MASSLRAAISAIKRDDVGQQVCPNYVMLRSSVTTKVVRNVVEYQIRTGGFFSCLAMLRPLQYAKRERLLGQRNLERISTRDILQTRDLHSLCMPTPDAPMSNHQASTMRELICSYFKVDHADGLKYIPMDERYSPSSLARLFTMGMAGLHITTEPSYKRVPIMHLAADLDCMTLALPYMITLDGDTVVPVAPTLSAEQLLDDGLKGLACMDISYGCEVDANSRPAGDQSMDSSRCINELYCEETAEAICVLKTCLVLNCMQFKLEMDDLAHNAAELDKIQMMIPFSERVFRMASSFATIDAQCFRFCVMMKDKNLKIDMRETTRLWTRSASDDSVATSSLSISLDRGRWVAADASDARLLVFPIRV
modifications: [35S]methionine-labelled
notes: nonstructural protein σNS of mammalian orthoreovirus (reovirus) strain T3D, S3 gene; same plasmid as m3; also called K11A σNS; source: in vitro translated (TNT T7 polymerase-coupled rabbit reticulocyte lysate), not purified
B7: σNS R14A, in vitro expressed (natural protein)
chain: MASSLRAAISKIKADDVGQQVCPNYVMLRSSVTTKVVRNVVEYQIRTGGFFSCLAMLRPLQYAKRERLLGQRNLERISTRDILQTRDLHSLCMPTPDAPMSNHQASTMRELICSYFKVDHADGLKYIPMDERYSPSSLARLFTMGMAGLHITTEPSYKRVPIMHLAADLDCMTLALPYMITLDGDTVVPVAPTLSAEQLLDDGLKGLACMDISYGCEVDANSRPAGDQSMDSSRCINELYCEETAEAICVLKTCLVLNCMQFKLEMDDLAHNAAELDKIQMMIPFSERVFRMASSFATIDAQCFRFCVMMKDKNLKIDMRETTRLWTRSASDDSVATSSLSISLDRGRWVAADASDARLLVFPIRV
modifications: [35S]methionine-labelled
notes: nonstructural protein σNS of mammalian orthoreovirus (reovirus) strain T3D, S3 gene; same plasmid as m4; also called R14A σNS; source: in vitro translated (TNT T7 polymerase-coupled rabbit reticulocyte lysate), not purified
B8: σNS R29A, in vitro expressed (natural protein)
chain: MASSLRAAISKIKRDDVGQQVCPNYVMLASSVTTKVVRNVVEYQIRTGGFFSCLAMLRPLQYAKRERLLGQRNLERISTRDILQTRDLHSLCMPTPDAPMSNHQASTMRELICSYFKVDHADGLKYIPMDERYSPSSLARLFTMGMAGLHITTEPSYKRVPIMHLAADLDCMTLALPYMITLDGDTVVPVAPTLSAEQLLDDGLKGLACMDISYGCEVDANSRPAGDQSMDSSRCINELYCEETAEAICVLKTCLVLNCMQFKLEMDDLAHNAAELDKIQMMIPFSERVFRMASSFATIDAQCFRFCVMMKDKNLKIDMRETTRLWTRSASDDSVATSSLSISLDRGRWVAADASDARLLVFPIRV
modifications: [35S]methionine-labelled
notes: nonstructural protein σNS of mammalian orthoreovirus (reovirus) strain T3D, S3 gene; same plasmid as m7; also called R29A σNS; source: in vitro translated (TNT T7 polymerase-coupled rabbit reticulocyte lysate), not purified
B9: σNS R38A, in vitro expressed (natural protein)
chain: MASSLRAAISKIKRDDVGQQVCPNYVMLRSSVTTKVVANVVEYQIRTGGFFSCLAMLRPLQYAKRERLLGQRNLERISTRDILQTRDLHSLCMPTPDAPMSNHQASTMRELICSYFKVDHADGLKYIPMDERYSPSSLARLFTMGMAGLHITTEPSYKRVPIMHLAADLDCMTLALPYMITLDGDTVVPVAPTLSAEQLLDDGLKGLACMDISYGCEVDANSRPAGDQSMDSSRCINELYCEETAEAICVLKTCLVLNCMQFKLEMDDLAHNAAELDKIQMMIPFSERVFRMASSFATIDAQCFRFCVMMKDKNLKIDMRETTRLWTRSASDDSVATSSLSISLDRGRWVAADASDARLLVFPIRV
modifications: [35S]methionine-labelled
notes: nonstructural protein σNS of mammalian orthoreovirus (reovirus) strain T3D, S3 gene; same plasmid as m9; also called R38A σNS; source: in vitro translated (TNT T7 polymerase-coupled rabbit reticulocyte lysate), not purified

Target: the molecule itself
Test: native gel or EMSA; 35S-labelled σNS expressed in rabbit reticulocyte lysate, incubated with 10 μg RNase A at 37°C for 1 h; blue native PAGE, 4-16% bis-Tris, 4°C; autoradiography

| Protein | stoichiometry N |
| --- | --- |
| B1 | 2 |

Target: the molecule itself
Test: native gel or EMSA; 35S-labelled σNS expressed in rabbit reticulocyte lysate, incubated without RNase A (125 mM NaCl) at 37°C for 1 h; blue native PAGE, 4-16% bis-Tris, 4°C; autoradiography; RNA of the lysate present, the ladders of oligomers are RNA-dependent

| Protein | stoichiometry N |
| --- | --- |
| B1 | ≥ 6 |
| B2 | 2 |
| B3 | 2 |
| B4 | 2 |
| B5 | 2 |
| B6 | 2 |
| B7 | 2 |
| B8 | 2 |
| B9 | 2 |
